We go through 3 substances from patent publication US20150132859A1.

For assay [1], the target named is EcSS-TpN17-Bi(DDS) (Treponema pallidum (TpN17 part); E. coli (SlyD part)). The assay can be described thus: DAGS ECL; detection PmSS-TpN17-Ru; EcSlyD-VcLp15 0 ug/ml in R1.
Assay [2] addresses EcFkpA-TpN17-Bi(DDS) (Treponema pallidum (TpN17 part); E. coli (FkpA part)). The assay can be described thus: DAGS ECL; detection EcSkp-TpN17-Ru; EcSlyD-VcLp15 0 ug/ml in R1.
The target in assay [3] is EcSS-TpN17-Bi(DDS) (Treponema pallidum (TpN17 part); E. coli (SlyD part)). The assay can be described thus: DAGS ECL; detection PmSS-TpN17-Ru; competitor EcSlyD-VcLp15 0.1 ug/ml in R1.
The target is the same in assay [4]. Description: DAGS ECL; detection PmSS-TpN17-Ru; competitor EcSlyD-VcLp15 0.2 ug/ml in R1.
For assay [5] the target is unchanged. The assay can be described thus: DAGS ECL; detection PmSS-TpN17-Ru; competitor EcSlyD-VcLp15 0.3 ug/ml in R1.
Assay [6] shares this target. Description: DAGS ECL; detection PmSS-TpN17-Ru; competitor EcSlyD-VcLp15 0.5 ug/ml in R1.
The target is the same in assay [7]. Description: DAGS ECL; detection PmSS-TpN17-Ru; competitor EcSlyD-VcLp15 1.0 ug/ml in R1.
Assay [8] deals with EcFkpA-TpN17-Bi(DDS) (Treponema pallidum (TpN17 part); E. coli (FkpA part)). The assay can be described thus: DAGS ECL; detection EcSkp-TpN17-Ru; competitor EcSlyD-VcLp15 0.1 ug/ml in R1.
Assay [9] shares this target. Description: DAGS ECL; detection EcSkp-TpN17-Ru; competitor EcSlyD-VcLp15 0.2 ug/ml in R1.
The target is the same in assay [10]. The assay can be described thus: DAGS ECL; detection EcSkp-TpN17-Ru; competitor EcSlyD-VcLp15 0.3 ug/ml in R1.
Assay [11] has the same target. Description: DAGS ECL; detection EcSkp-TpN17-Ru; competitor EcSlyD-VcLp15 0.5 ug/ml in R1.
Assay [12] shares this target. The assay can be described thus: DAGS ECL; detection EcSkp-TpN17-Ru; competitor EcSlyD-VcLp15 1.0 ug/ml in R1.
For assay [13], the target named is EcSS-TpN17-Bi(DDS) (Treponema pallidum (TpN17 part); E. coli (SlyD part)). Description: DAGS ECL; detection PmSS-TpN17-Ru; EcSkp-VcLp15 0 ug/ml in R1.
Assay [14] addresses EcFkpA-TpN17-Bi(DDS) (Treponema pallidum (TpN17 part); E. coli (FkpA part)). The assay can be described thus: DAGS ECL; detection EcSkp-TpN17-Ru; EcSkp-VcLp15 0 ug/ml in R1.
Assay [15] addresses EcSS-TpN17-Bi(DDS) (Treponema pallidum (TpN17 part); E. coli (SlyD part)). Description: DAGS ECL; detection PmSS-TpN17-Ru; competitor EcSkp-VcLp15 0.1 ug/ml in R1.
Assay [16] shares this target. Description: DAGS ECL; detection PmSS-TpN17-Ru; competitor EcSkp-VcLp15 1.0 ug/ml in R1.
The target in assay [17] is EcFkpA-TpN17-Bi(DDS) (Treponema pallidum (TpN17 part); E. coli (FkpA part)). Description: DAGS ECL; detection EcSkp-TpN17-Ru; competitor EcSkp-VcLp15 0.1 ug/ml in R1.
Assay [18] shares this target. The assay can be described thus: DAGS ECL; detection EcSkp-TpN17-Ru; competitor EcSkp-VcLp15 1.0 ug/ml in R1.

Take Trina #0647: the counts came out at 623 counts in [1]; 774 counts in assay [2]; 614 counts in [3]; 606 counts in assay [4]; 620 counts in assay [5]; 618 counts in assay [6]. The counts in assay [7] was 623 counts; in assay [8], 786 counts; in assay [9] it was 764 counts; in [10], 773 counts; in [11] it was 762 counts; in assay [12] it was 742 counts.

Consider Trina #0642, for which the counts in assay [13] was found to be 673 counts; in [1] it was 657 counts; in assay [14] it was 750 counts; in assay [2], 778 counts; in assay [15], 673 counts; in assay [16], 632 counts. Further, the counts stood at 613 counts in assay [3]; 638 counts in [4]; 626 counts in assay [5]; 623 counts in [6]; 610 counts in assay [7]; 757 counts in assay [17]. For the same substance, the counts in [18] turned out to be 744 counts; in [8], 716 counts; in assay [9], 722 counts; in assay [10], 698 counts; in assay [11], 698 counts; in [12], 661 counts.

For Trina #0646, the counts in [13] was found to be 651 counts; in assay [1] it was 634 counts; in assay [14], 840 counts; in assay [2], 797 counts; in assay [15] it was 659 counts; in assay [16], 646 counts. In addition, the counts was determined as 617 counts in assay [3]; 634 counts in assay [4]; 628 counts in assay [5]; 621 counts in [6]; 613 counts in assay [7]; 847 counts in [17]. Moreover, the counts in assay [18] turned out to be 815 counts; in [8], 795 counts; in assay [9] it was 817 counts; in assay [10] it was 802 counts; in assay [11], 784 counts; in assay [12], 784 counts.
